Assay results taken from patent US20150147336A1.

What was measured:
[1] = target: IFNα2a (human) (UniProt P01563); assay: cell-based or functional assay
[2] = target: human leukocyte IFN; assay: cell-based or functional assay

Substance: MEDI-545 (antibody)
- HERC5 gene expression (TAQMAN, Average) in whole blood of donor 107 with 100 IU IFNα2a + MEDI-545; same donor VEH 1.00, IFN alone 41.12 (relative expression (Average)) [1]: 6.29
- HERC5 gene expression (TAQMAN, Average) in whole blood of donor 163 with 100 IU IFNα2a + MEDI-545; same donor VEH 1.05, IFN alone 75.81 (relative expression (Average)) [1]: 7.83
- HERC5 gene expression (TAQMAN, Average) in whole blood of donor 175 with 100 IU IFNα2a + MEDI-545; same donor VEH 1.19, IFN alone 74.58 (relative expression (Average)) [1]: 6.89
- IFN α2a-induced IFIT1 gene expression in whole blood (TAQMAN), sample 107 IFN + 545 (107 IFN 80.21; 107 VEH 1.00) (relative expression (Average)) [1]: 13.1
- IFN α2a-induced IFIT1 gene expression in whole blood (TAQMAN), sample 163 IFN + 545 (163 IFN 51.65; 163 VEH 0.92) (relative expression (Average)) [1]: 7.6
- IFN α2a-induced IFIT1 gene expression in whole blood (TAQMAN), sample 175 IFN + 545 (175 IFN 82.98; 175 VEH 1.47) (relative expression (Average)) [1]: 8.4
- IFN α2a-induced IFIT3 gene expression in whole blood (TAQMAN), sample 107 IFN + 545 (107 IFN 38.43; 107 VEH 1.00) (relative expression (Average)) [1]: 6.78
- IFN α2a-induced IFIT3 gene expression in whole blood (TAQMAN), sample 163 IFN + 545 (163 IFN 25.94; 163 VEH 0.62) (relative expression (Average)) [1]: 4.58
- IFN α2a-induced IFIT3 gene expression in whole blood (TAQMAN), sample 175 IFN + 545 (175 IFN 35.02; 175 VEH 1.32) (relative expression (Average)) [1]: 5.28
- IFN α2a-induced IL6ST gene expression in whole blood (TAQMAN), sample 107 IFN + 545 (107 IFN 3.54; 107 VEH 1.00) (relative expression (Average)) [1]: 2.62
- IFN α2a-induced IL6ST gene expression in whole blood (TAQMAN), sample 163 IFN + 545 (163 IFN 7.69; 163 VEH 2.50) (relative expression (Average)) [1]: 4.18
- IFN α2a-induced IL6ST gene expression in whole blood (TAQMAN), sample 175 IFN + 545 (175 IFN 7.62; 175 VEH 1.37) (relative expression (Average)) [1]: 2.95
- IFN α2a-induced IRF7 gene expression in whole blood (TAQMAN), sample 107 IFN + 545 (107 IFN 18.53; 107 VEH 1.00) (relative expression (Average)) [1]: 3.42
- IFN α2a-induced IRF7 gene expression in whole blood (TAQMAN), sample 163 IFN + 545 (163 IFN 17.16; 163 VEH 0.91) (relative expression (Average)) [1]: 2.92
- IFN α2a-induced IRF7 gene expression in whole blood (TAQMAN), sample 175 IFN + 545 (175 IFN 24.65; 175 VEH 1.25) (relative expression (Average)) [1]: 2.43
- IFN α2a-induced LY6E gene expression in whole blood (TAQMAN), sample 107 IFN + 545 (107 IFN 19.09; 107 VEH 1.00) (relative expression (Average)) [1]: 3.5
- IFN α2a-induced LY6E gene expression in whole blood (TAQMAN), sample 163 IFN + 545 (163 IFN 13.52; 163 VEH 1.02) (relative expression (Average)) [1]: 4.8
- IFN α2a-induced LY6E gene expression in whole blood (TAQMAN), sample 175 IFN + 545 (175 IFN 19.32; 175 VEH 1.61) (relative expression (Average)) [1]: 3.74
- IFN α2a-induced MARCKS gene expression in whole blood (TAQMAN), sample 163 IFN + 545 (163 IFN 2.59; 163 VEH 0.56) (relative expression (Average)) [1]: 1.55
- IFN α2a-induced MARCKS gene expression in whole blood (TAQMAN), sample 175 IFN + 545 (175 IFN 2.59; 175 VEH 0.41) (relative expression (Average)) [1]: 0.55
- IFN α2a-induced RAB8B gene expression in whole blood (TAQMAN), sample 163 IFN + 545 (163 IFN 2.20; 163 VEH 0.70) (relative expression (Average)) [1]: 1.18
- IFN α2a-induced RAB8B gene expression in whole blood (TAQMAN), sample 175 IFN + 545 (175 IFN 2.63; 175 VEH 0.64) (relative expression (Average)) [1]: 1.15
- OAS1 gene expression (TAQMAN, Average) in whole blood of donor 107 with 100 IU IFNα2a + MEDI-545; same donor VEH 1.00, IFN alone 15.11 (relative expression (Average)) [1]: 3.45
- OAS1 gene expression (TAQMAN, Average) in whole blood of donor 163 with 100 IU IFNα2a + MEDI-545; same donor VEH 0.77, IFN alone 14.19 (relative expression (Average)) [1]: 3.05
- OAS1 gene expression (TAQMAN, Average) in whole blood of donor 175 with 100 IU IFNα2a + MEDI-545; same donor VEH 1.62, IFN alone 22.09 (relative expression (Average)) [1]: 4.04
- OAS3 gene expression (TAQMAN, Average) in whole blood of donor 107 with 100 IU IFNα2a + MEDI-545; same donor VEH 1.00, IFN alone 49.04 (relative expression (Average)) [1]: 7.03
- OAS3 gene expression (TAQMAN, Average) in whole blood of donor 163 with 100 IU IFNα2a + MEDI-545; same donor VEH 0.49, IFN alone 42.01 (relative expression (Average)) [1]: 14.6
- OAS3 gene expression (TAQMAN, Average) in whole blood of donor 175 with 100 IU IFNα2a + MEDI-545; same donor VEH 1.27, IFN alone 37.87 (relative expression (Average)) [1]: 3.92
- RSAD2 gene expression (TAQMAN, Average) in whole blood of donor 107 with 100 IU IFNα2a + MEDI-545; same donor VEH 1.00, IFN alone 109.64 (relative expression (Average)) [1]: 9.88
- RSAD2 gene expression (TAQMAN, Average) in whole blood of donor 163 with 100 IU IFNα2a + MEDI-545; same donor VEH 0.56, IFN alone 71.47 (relative expression (Average)) [1]: 4.39
- RSAD2 gene expression (TAQMAN, Average) in whole blood of donor 175 with 100 IU IFNα2a + MEDI-545; same donor VEH 1.88, IFN alone 126.27 (relative expression (Average)) [1]: 8.43
- neutralization of overexpression of ISG15, USP18 and IFIT2 in keratinocytes stimulated with 150 I.U./mL leukocyte IFN [2]: 70 to 100%

Substance: R347 (antibody)
- HERC5 gene expression (TAQMAN, Average) in whole blood of donor 107 with 100 IU IFNα2a + R347 control Ab; same donor VEH 1.00, IFN alone 41.12 (relative expression (Average)) [1]: 55
- HERC5 gene expression (TAQMAN, Average) in whole blood of donor 163 with 100 IU IFNα2a + R347 control Ab; same donor VEH 1.05, IFN alone 75.81 (relative expression (Average)) [1]: 95.4
- HERC5 gene expression (TAQMAN, Average) in whole blood of donor 175 with 100 IU IFNα2a + R347 control Ab; same donor VEH 1.19, IFN alone 74.58 (relative expression (Average)) [1]: 98.2
- IFN α2a-induced IFIT1 gene expression in whole blood (TAQMAN), sample 107 IFN + R347 (107 IFN 80.21; 107 VEH 1.00) (relative expression (Average)) [1]: 86.4
- IFN α2a-induced IFIT1 gene expression in whole blood (TAQMAN), sample 163 IFN + R3437 (163 IFN 51.65; 163 VEH 0.92) (relative expression (Average)) [1]: 86.6
- IFN α2a-induced IFIT3 gene expression in whole blood (TAQMAN), sample 107 IFN + R347 (107 IFN 38.43; 107 VEH 1.00) (relative expression (Average)) [1]: 42.6
- IFN α2a-induced IFIT3 gene expression in whole blood (TAQMAN), sample 163 IFN + R3437 (163 IFN 25.94; 163 VEH 0.62) (relative expression (Average)) [1]: 44.8
- IFN α2a-induced IFIT3 gene expression in whole blood (TAQMAN), sample 175 IFN + R347 (175 IFN 35.02; 175 VEH 1.32) (relative expression (Average)) [1]: 29.7
- IFN α2a-induced IL6ST gene expression in whole blood (TAQMAN), sample 107 IFN + R347 (107 IFN 3.54; 107 VEH 1.00) (relative expression (Average)) [1]: 8.19
- IFN α2a-induced IL6ST gene expression in whole blood (TAQMAN), sample 163 IFN + R3437 (163 IFN 7.69; 163 VEH 2.50) (relative expression (Average)) [1]: 13.2
- IFN α2a-induced IL6ST gene expression in whole blood (TAQMAN), sample 175 IFN + R347 (175 IFN 7.62; 175 VEH 1.37) (relative expression (Average)) [1]: 23.9
- IFN α2a-induced IRF7 gene expression in whole blood (TAQMAN), sample 107 IFN + R347 (107 IFN 18.53; 107 VEH 1.00) (relative expression (Average)) [1]: 19.5
- IFN α2a-induced IRF7 gene expression in whole blood (TAQMAN), sample 163 IFN + R3437 (163 IFN 17.16; 163 VEH 0.91) (relative expression (Average)) [1]: 23.3
- IFN α2a-induced IRF7 gene expression in whole blood (TAQMAN), sample 175 IFN + R347 (175 IFN 24.65; 175 VEH 1.25) (relative expression (Average)) [1]: 26.3
- IFN α2a-induced LY6E gene expression in whole blood (TAQMAN), sample 107 IFN + R347 (107 IFN 19.09; 107 VEH 1.00) (relative expression (Average)) [1]: 12.5
- IFN α2a-induced LY6E gene expression in whole blood (TAQMAN), sample 163 IFN + R3437 (163 IFN 13.52; 163 VEH 1.02) (relative expression (Average)) [1]: 22.6
- IFN α2a-induced LY6E gene expression in whole blood (TAQMAN), sample 175 IFN + R347 (175 IFN 19.32; 175 VEH 1.61) (relative expression (Average)) [1]: 15.6
- IFN α2a-induced MARCKS gene expression in whole blood (TAQMAN), sample 107 IFN + R347 (107 FN 3.97; 107 VEH 1.00) (relative expression (Average)) [1]: 2.99
- IFN α2a-induced MARCKS gene expression in whole blood (TAQMAN), sample 163 IFN + R3437 (163 IFN 2.59; 163 VEH 0.56) (relative expression (Average)) [1]: 4.42
- IFN α2a-induced MARCKS gene expression in whole blood (TAQMAN), sample 175 IFN + R347 (175 IFN 2.59; 175 VEH 0.41) (relative expression (Average)) [1]: 3.38
- IFN α2a-induced RAB8B gene expression in whole blood (TAQMAN), sample 107 IFN + R347 (107 IFN 3.45; 107 VEH 1.0) (relative expression (Average)) [1]: 3.15
- IFN α2a-induced RAB8B gene expression in whole blood (TAQMAN), sample 163 IFN + R3437 (163 IFN 2.20; 163 VEH 0.70) (relative expression (Average)) [1]: 3.71
- IFN α2a-induced RAB8B gene expression in whole blood (TAQMAN), sample 175 IFN + R347 (175 IFN 2.63; 175 VEH 0.64) (relative expression (Average)) [1]: 2.51
- OAS1 gene expression (TAQMAN, Average) in whole blood of donor 107 with 100 IU IFNα2a + R347 control Ab; same donor VEH 1.00, IFN alone 15.11 (relative expression (Average)) [1]: 17.8
- OAS1 gene expression (TAQMAN, Average) in whole blood of donor 163 with 100 IU IFNα2a + R347 control Ab; same donor VEH 0.77, IFN alone 14.19 (relative expression (Average)) [1]: 22.4
- OAS1 gene expression (TAQMAN, Average) in whole blood of donor 175 with 100 IU IFNα2a + R347 control Ab; same donor VEH 1.62, IFN alone 22.09 (relative expression (Average)) [1]: 15.2
- OAS3 gene expression (TAQMAN, Average) in whole blood of donor 107 with 100 IU IFNα2a + R347 control Ab; same donor VEH 1.00, IFN alone 49.04 (relative expression (Average)) [1]: 76.9
- OAS3 gene expression (TAQMAN, Average) in whole blood of donor 163 with 100 IU IFNα2a + R347 control Ab; same donor VEH 0.49, IFN alone 42.01 (relative expression (Average)) [1]: 52.6
- OAS3 gene expression (TAQMAN, Average) in whole blood of donor 175 with 100 IU IFNα2a + R347 control Ab; same donor VEH 1.27, IFN alone 37.87 (relative expression (Average)) [1]: 34.9
- RSAD2 gene expression (TAQMAN, Average) in whole blood of donor 107 with 100 IU IFNα2a + R347 control Ab; same donor VEH 1.00, IFN alone 109.64 (relative expression (Average)) [1]: 107
- RSAD2 gene expression (TAQMAN, Average) in whole blood of donor 163 with 100 IU IFNα2a + R347 control Ab; same donor VEH 0.56, IFN alone 71.47 (relative expression (Average)) [1]: 115
- RSAD2 gene expression (TAQMAN, Average) in whole blood of donor 175 with 100 IU IFNα2a + R347 control Ab; same donor VEH 1.88, IFN alone 126.27 (relative expression (Average)) [1]: 91
